These are literature values, as cited in PMC5430790.

For series [1], the target named is TβR-II (Homo sapiens) (UniProt P37173).
Series [2] addresses TβR-I (Homo sapiens) (UniProt P36897).

Chain of TGF-β1 (P01137 279-390): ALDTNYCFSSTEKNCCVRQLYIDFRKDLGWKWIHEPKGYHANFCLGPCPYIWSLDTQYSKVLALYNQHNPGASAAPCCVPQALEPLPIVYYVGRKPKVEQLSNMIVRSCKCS
Chain of TβR-I (Homo sapiens) (P36897 34-126): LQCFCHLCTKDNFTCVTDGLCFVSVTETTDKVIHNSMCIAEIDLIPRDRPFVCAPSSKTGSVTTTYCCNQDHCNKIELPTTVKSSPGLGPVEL
Chain of TβR-II (Homo sapiens) (P37173 23-166): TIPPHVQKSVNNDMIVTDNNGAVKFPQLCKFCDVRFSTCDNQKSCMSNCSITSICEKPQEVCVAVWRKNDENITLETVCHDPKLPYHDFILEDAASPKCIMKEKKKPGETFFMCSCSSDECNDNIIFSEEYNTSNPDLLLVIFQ

As to TGF-β1 (from UniProt P01137), the values for the Kd in series [1] and in series [2] were 190 nM and 70 µM, respectively.

The Kd is a measure of binding affinity in units of concentration.
